Holding throughout (experiment): EMSA
For data set [1], the target named is T1, Sox2HMG1/Oct4POU (Mus musculus, UniProt P48432;P20263 P48432:33-141,P20263:126-289). The conditions noted are these: label: 5'-Cy5. Here is the method: (§1) Electrophoretic mobility shift assays: All EMSAs were carried out using double-stranded 5′ Cy5-labeled DNA (Sigma Proligo, see Table 1) (Jauch, R., et al. J. Mol. Biol. (2008) 376(3):758-70). Binding buffer contains 20 mM Tris-HC1 pH 8.0, 50 μM ZnCl₂, 100 mM KCl, 10% glycerol, 2 mM 13-merceptoethanol, 0.1 mg/ml bovine serum albumin (BSA) and 0.1% (v/v) Igepal CA-630. 250nM dsDNA probes were mixed with analyte proteins singly or in combinations in binding buffer and incubated for 1 hr at 4° C. in dark. Samples were loaded into a pre-run 12% (w/v) IX Tris-glycine polyacrylamide gel in 1XTG (25 mM Tris, pH 8.3; 192 mM glycine) buffer to separate different species of bound and unbound probes. The fluorescence was detected using a Typhoon 9140 PhosphorImager (Amersham Biosciences).
T1 sequence (P48432 33-141, chain 1 of 2): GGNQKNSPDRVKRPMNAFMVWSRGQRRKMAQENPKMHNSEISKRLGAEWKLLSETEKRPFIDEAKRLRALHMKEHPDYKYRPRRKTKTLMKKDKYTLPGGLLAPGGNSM
T1 sequence (P20263 126-289, chain 2 of 2): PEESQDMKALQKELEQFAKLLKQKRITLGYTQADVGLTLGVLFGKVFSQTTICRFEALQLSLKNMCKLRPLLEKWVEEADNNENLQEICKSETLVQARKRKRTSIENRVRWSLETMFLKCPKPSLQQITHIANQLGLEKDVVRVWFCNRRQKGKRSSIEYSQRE
Profiling of Sox/Oct4 Binding to Differentially Configured Motifs: To assess the preference of Sox2 and Oct4 to physically assemble on differentially configured sox/oct motifs in vitro, electrophoretic mobility shift assays (EMSA) were conducted using purified DNA binding domains (DBDs) of Sox2 and Oct4. The heterodimerization potential of Sox2/Oct4 DBD pairs was screened on a panel of systematically modified sox/oct composite motifs (FIG. 7A). A strong cooperative interaction of Sox2 and Oct4 on the canonical element was observed (x=0, FIG. 8A, lanes 5-7). […]

In data set [2] the target is T2, Oct4 POU domain (Mus musculus, UniProt P20263 P20263:126-289). The conditions noted are these: tags: N-terminal MBP tag removed by TEV protease; label: 5'-Cy5.
T2 sequence (P20263 126-289, one chain of several): as the sequence (P20263 126-289, chain 2 of 2) above
In data set [3] the target is Sox17HMG (Mus musculus, UniProt Q61473 SEQ:68-136). Particulars: label: 5'-Cy5.
Sox17HMG, sequence (Q61473 68-136): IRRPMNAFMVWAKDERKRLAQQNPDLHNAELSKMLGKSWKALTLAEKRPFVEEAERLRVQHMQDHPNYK
Data set [4] concerns the target T3, Sox2HMGs (core HMG)/Oct4POU (Mus musculus, UniProt P48432;P20263 P48432:43-111,P20263:126-289). The conditions noted are these: label: 5'-Cy5. Here is the method: as §1
(§2) FIG. 1: EMSAs to assess Sox7, Sox2HMGs and spacer nucleotides. To exclude artifacts that could have been caused by the length difference between the Sox2/Sox17 constructs, the differential assembly of the core Sox2HMG domain (termed Sox2HMGs) was tested. The domain spans the same range of amino acids of the Sox17 construct. The differential assembly of Sox7, another F group Sox protein with strong sequence similarities to Sox17 was also tested. Sox7 and Sox17 had comparably weak Oct4 heterodimerization on canonical elements whereas cooperative binding was observed on the compressed element. Thirdly, the spacer nucleotide of the canonical element on the remaining three possible nucleotides was varied (CATTGT(C/A/T/G)ATGCAAAT). The identity of the spacer nucleotide was found not to have a pronounced impact on the overall dimerization profile of the various Sox protein with Oct4. 50nM of Sox2HMGs, Sox7HMG and Sox17HMG were incubated with canonical elements containing different basebairs at position 7 of the Sox motif (C₁A₂T₃T₄G₅T₆(A/T/C/G)₇; A-D) and on the compressed element (E) in the absence (Lanes 1-3) or presence (Lanes 4-6) of 250 nM Oct4POU.

For data set [5], the target named is T1, Sox2HMG1/Oct4POU. Particulars: label: 5'-Cy5. As to the method:
as §1
(§3) FIG. 8: Differential assembly of Sox2HMG and Oct4POU (A) and Sox17HMG and Oct4 (E) on a series of different motif configurations. Motif configurations were systematically designed as outlined in FIG. 1A using 30bp DNA elements containing identical Sox (CATTGTC) and Oct4 (ATGCAAAT) consensus sequences flanked by GC rich sequences. To minimize binding anomalies due to cryptic elements at the periphery or within the spacer region we used idealized motifs (CATTGTC for sox and ATGCAAAT for oct) and introduced G's and C's as spacer and boundary nucleotides. Each DNA element was mixed with individual transcription factor proteins as well as with both Sox2 and Oct4 DBDs in combination (See supplementary information). 250 nM of every cy5-labelled DNA element was incubated with 50 nM Sox2HMG1/Sox17HMG and 250 nM Oct4POU proteins alone and in combination followed by PAGE to assess the formation of ternary Sox/Oct4/DNA complex. The position of the various protein DNA complexes are marked by arrows. The number of spacer basepairs is indicated above and below the gels. X=-1 denotes the compressed and X=0 the canonical elements. The co-occurrence of canonical and compressed motifs within genomic regions co-bound by Sox2 and Oct4 in mouse embryonic stem cells are depicted in (B). […]
The source holds these as a separate data set.

The target in data set [6] is T2, Oct4 POU domain. The conditions noted are these: tags: N-terminal MBP tag removed by TEV protease; label: 5'-Cy5. Here is the method:
as §1
(§4) FIG. 9: (A) Differential assembly of Sox2/Oct4 and Sox17/Oct4 on the compressed and canonical elements. Proteins were added to 250nM DNA elements in the sequences indicated above the lanes. To distinguish shifts caused by Sox2 and Sox17 a N and C-terminally extended Sox2-HMG (Sox2HMG1) domain was used in these experiments. As a consequence, both, the Sox2/DNA and the Sox2/Oct4/DNA complex, migrate slower than the corresponding Sox17 complexes, allowing us to visualize a Sox2/Oct4 and Sox17/Oct4 DNA complex on the same gel. […]
This is another data set of the same source.

For data set [7], the target named is Sox2HMG1 (extended HMG domain) (Mus musculus, UniProt P48432 SEQ:33-141). Particulars: label: 5'-Cy5. As to the method:
as §1, §4

In data set [8] the target is Sox7HMG/Oct4POU (Mus musculus, UniProt P40646;P20263 P40646:45-113,P20263:126-289). The conditions noted are these: label: 5'-Cy5. Here is the method: as §1, §2
Sox7HMG/Oct4POU, sequence (P40646 45-113, chain 1 of 2): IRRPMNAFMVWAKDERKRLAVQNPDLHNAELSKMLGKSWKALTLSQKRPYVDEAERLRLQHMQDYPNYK
Sox7HMG/Oct4POU, sequence (P20263 126-289, chain 2 of 2): as the sequence (P20263 126-289, chain 2 of 2) above
The target in data set [9] is T4, Sox17HMG/Oct4POU (Mus musculus, UniProt Q61473;P20263 Q61473:68-136,P20263:126-289). The conditions noted are these: label: 5'-Cy5. As to the method: as §1, §3
T4 sequence (Q61473 68-136, chain 1 of 2): as the sequence (Q61473 68-136) above
T4 sequence (P20263 126-289, chain 2 of 2): as the sequence (P20263 126-289, chain 2 of 2) above
Data set [10] has as its target Sox2KE HMG/Oct4POU (Mus musculus, UniProt P48432;P20263 P48432:43-111,P20263:126-289, Sox2 K95E). The conditions noted are these: label: 5'-Cy5. As to the method: (§5) 250nM dsDNA probes were mixed with analyte proteins singly or in combinations in binding buffer and incubated for 1 hr at 4° C. in dark. Samples were loaded into a pre-run 12% (w/v) IX Tris-glycine polyacrylamide gel in 1XTG (25 mM Tris, pH 8.3; 192 mM glycine) buffer to separate different species of bound and unbound probes. The fluorescence was detected using a Typhoon 9140 PhosphorImager (Amersham Biosciences).
(§6) FIG. 10: (A) Alignment of the amino acid sequence of all mouse Sox proteins. The Sox subfamilies (Bowles, J. et al., Dev. Biol. (2000) 227: 239-55) are indicated to the right. The numbering corresponds to the Sox17 sequence. Alpha helices are marked with a red bar. The FM wedge is indicated with an orange bar below the alignment and further DNA interacting residues are marked by black closed circles. Highly conserved and similar sequences are shaded in black or gray. The position of glutamate and lysine residues distinguishing Sox17 and Sox2 is marked by an arrow. The eight amino acids in helix 3 of Sox2 that were replaced by their corresponding counterparts found in Sox17 to construct the Sox2″¹⁷ protein are colored red. (B) structural model prepared using pymol by using the structural coordinates for Sox17 and the Sox2/Oct1 on DNA. The van-der-Waals surface of the DNA derived from the Sox2/Oct1 structure is shown in light gray. Sox17 (blue) was superimposed onto Sox2 (gray). Oct1 is shown in black. Note that the linker region connecting the POU specific and the POU homedomain is not present in the NMR derived model due to structural disorder. The glutamate (Sox17) and the lysine (Sox2) that were mutated are shown as ball-and-sticks. Note that the lysine exists in two alternative conformations in the NMR model. (C)Point mutations at the Sox/Oct4 interface swap the differential assembly behavior of Sox2 and Sox17 on the canonical versus the compressed element DNA element derived from a functional sox/oct element within the Nanog enhancer were used (Rodda, D. J. et al. J Biol Chem (2005) 280:24731-7). 2 denotes Sox2HMGs, 17: Sox17HMG, 2KE: Sox2KE, 17EK: Sox17EK and 2α17 the replacement of all Sox2 residues in helix 3 that differ from the corresponding Sox17 residues into their Sox17 counterpart. Sox proteins were incubated with DNA individually and in combination with Oct4.

The target of data set [11] is T4, Sox17HMG/Oct4POU. The conditions noted are these: label: 5'-Cy5. As to the method:
as §5, §6
The source holds these as a separate data set.

Data set [12] addresses Sox17EK HMG/Oct4POU (Mus musculus, UniProt Q61473;P20263 Q61473:68-136,P20263:126-289, Sox17 E122K). Particulars: label: 5'-Cy5. Here is the method:
as §5, §6

Data set [13] has as its target T3, Sox2HMGs (core HMG)/Oct4POU. The conditions noted are these: label: 5'-Cy5. Here is the method: as §5, §6
The source holds these as a separate data set.

T3 sequence (P48432 43-111, chain 1 of 2): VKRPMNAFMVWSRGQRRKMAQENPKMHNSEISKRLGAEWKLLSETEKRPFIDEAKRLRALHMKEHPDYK
T3 sequence (P20263 126-289, chain 2 of 2): as the sequence (P20263 126-289, chain 2 of 2) above
Sox17EK HMG/Oct4POU, sequence (Q61473 68-136 E122K, chain 1 of 2): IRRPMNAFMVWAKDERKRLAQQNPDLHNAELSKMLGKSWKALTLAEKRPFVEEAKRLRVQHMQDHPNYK
Sox17EK HMG/Oct4POU, sequence (P20263 126-289, stated change not applied, chain 2 of 2): as the sequence (P20263 126-289, chain 2 of 2) above
Sox2KE HMG/Oct4POU, sequence (P48432 43-111, stated change not applied, chain 1 of 2): as the sequence (P48432 43-111, chain 1 of 2) above
Sox2KE HMG/Oct4POU, sequence (P20263 126-289, stated change not applied, chain 2 of 2): as the sequence (P20263 126-289, chain 2 of 2) above
Sox2HMG1 (extended HMG domain), sequence (P48432 33-141): as the sequence (P48432 33-141, chain 1 of 2) above

B1: order (dsDNA)
DNA 1: GGCGCGGATGCAAATCATTGTCCGGCGGCG
DNA 2: CGCCGCCGGACAATGATTTGCATCCGCGCC
In the case of B1, the binding result in data set [1] was “no binding”.

B2: canonical sox/oct (0) (dsDNA)
DNA 1: GGCGCGGCATTGTCATGCAAATCGGCGGCG
DNA 2: CGCCGCCGATTTGCATGACAATGCCGCGCC
As for B2, the binding result in data set [2], in data set [3], in [4] and in data set [5] was “binds” in each case.

B3: compressed sox/oct (-1) (dsDNA)
DNA 1: CGGCGCGGCATTGTATGCAAATCGGCGGCG
DNA 2: CGCCGCCGATTTGCATACAATGCCGCGCCG
With B3, the binding result in data set [3] was “binds”; in data set [6] it was “binds”; in data set [7], “binds”; in [4], “no binding”; in data set [8], “binds”; in data set [5], “no binding”. The binding result in [9] was “binds”.

B4: Nanog' compressed (-1) (dsDNA)
DNA 1: CTGGACATTGTATGCAAAAGAA
DNA 2: TTCTTTTGCATACAATGTCCAG
On to B4, for which the binding result in [10] is recorded as “binds”; in [11], “binds”; in data set [12], “no binding”.

B5: Nanog canonical (dsDNA)
DNA 1: CATGGACATTGTAATGCAAAAGAAGCTG
DNA 2: CAGCTTCTTTTGCATTACAATGTCCATG
For the molecule B5, the binding result in data set [13] and in data set [12] was “binds” in each case.

These data come from US20120220029, “MUTANT SOX PROTEINS AND METHODS OF INDUCING PLURIPOTENCY” (Agency for Science, Technology and Research, published 2012).
